Results taken from IntAct's records for PubMed 21529711.

B1: Protein nutcracker (Drosophila melanogaster (Fruit fly)), Q8SX86 (parent)
chain: MSDTKSEIEGFIAIPTTSGEQQQQQPQQQQNEQQVVGTKDIKAPDQVGKKQRPRLIQEKSTQETNPLILEHATLEWVPQHMDKLLNQYQECRKMPAAEWLHLLTYLVALECGFVEEETFAQKRHLIQPVPSFSSFHAQNVRILSEQPARYEVCFNDTVYIMRLRTLLDKHAPEETSLVAALQCRLMAVSLGDQLMITLSPAPPSKEPGYSVSLSIGRYVLNIQAKNKPIYHRFRKLDELSYQLKQHLFQPMRSQQLMQMEMKLQPSLLGLPDELYFEIFRYLDKSQLNVVARVNRHLHFYSKEVERKRLKGGRS
partner: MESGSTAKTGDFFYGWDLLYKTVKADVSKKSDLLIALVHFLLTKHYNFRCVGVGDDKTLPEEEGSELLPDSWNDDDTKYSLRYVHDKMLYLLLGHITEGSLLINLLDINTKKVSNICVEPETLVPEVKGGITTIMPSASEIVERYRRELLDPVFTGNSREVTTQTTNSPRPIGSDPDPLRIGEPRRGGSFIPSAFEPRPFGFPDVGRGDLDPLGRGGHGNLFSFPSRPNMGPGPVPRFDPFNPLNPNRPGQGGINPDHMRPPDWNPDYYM

Variants of: B1
Settings: with psmf1_drome PI31, Q9V637

effect of a mutation on the interaction	Variant
decreasing interaction	MSDTKSEIEGFIAIPTTSGEQQQQQPQQQQNEQQVVGTKDIKAPDQVGKKQRPRLIQEKSTQETNPLILEHATLEWVPQHMDKLLNQYQECRKMPAAEWLHLLTYLVALECGFVEEETFAQKRHLIQPVPSFSSFHAQNVRILSEQPARYEVCFNDTVYIMRLRTLLDKHAPEETSLVAALQCRLMAESLGDQLMITLSPAPPSKEPGYSVSLSIGRYVLNIQAKNKPIYHRFRKLDELSYQLKQHLFQPMRSQQLMQMEMKLQPSLLGLPDELYFEIFRYLDKSQLNVVARVNRHLHFYSKEVERKRLKGGRS [V188E]
